Values quoted from earlier work as cited in publication PMC9900175.

Target: CD200R (Homo sapiens) (UniProt Q8TD46)
UniProt Q8TD46, sequence (Q8TD46 25-265): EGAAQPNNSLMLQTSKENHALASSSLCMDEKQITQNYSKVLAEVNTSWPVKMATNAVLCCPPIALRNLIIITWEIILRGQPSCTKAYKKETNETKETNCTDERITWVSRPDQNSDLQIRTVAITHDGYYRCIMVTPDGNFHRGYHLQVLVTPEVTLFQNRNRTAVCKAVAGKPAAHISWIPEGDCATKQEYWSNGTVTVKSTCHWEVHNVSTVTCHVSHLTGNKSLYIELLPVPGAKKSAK

CD200 (from UniProt P41217)
Kd: 500 nM
